The values that follow come from patent US20250155441A1 (ROCHE DIAGNOSTICS OPERATIONS, published 2025).

B1: AFP(243-261)[Ac-243; Asn(G0F)251]amid (peptide)
peptide: Ac-LSQKFTKVN(G0F)FTEIQKLVLD-NH2
notes: also called BMO 35.000315
B2: AFP(248-256)Ac-248]amid (peptide)
peptide: Ac-TKVNFTEIQ-NH2
notes: also called BMO 35.000373
B3: mAb<AFP-L3>rRb-19B12-IgG (antibody, V domains shown)
VH: QSVEESGGRLVAPGTPLTLTCTVSGIDLSTYGMGWVRQAPGKGLEWIGIIGDNGSTYYANWAKGRFTISKTSTTVDLKMTSLTTEDTATYFCARDRDPSSSGYYFKMWGPGTLVTVSL
VL: ALVMTQTPSSVSAAVGGTVTINCQASQSISSYLAWYQQKPGQPPKLLIFGASNLESGVPSRFKGSGSGTEFTLTISDLECDDAATYYCQTAFYIFSSDNAFGGGTEVVVK
notes: Recombinant rabbit IgG (B-cell supernatant in the Hit-ELISA, expressed in HEK293 afterwards); also called antibody 19B12; clone 19B12
B4: mAb<AFP-L3>rRb-3C5-IgG (antibody, V domains shown)
VH: QSVEESGGRLVAPGTPLTLTCTVSGIDLSTYGMGWVRQAPGKGLEYIGIIDSGSTYYANWAKGRFTISKTSTTVDLKMTSLTTEDTATYFCARDRDPSSSGYYFKMWGPGTLVTVSL
VL: ALVMTQTPSSVSAAVGGTVTINCQASQSIGSYLAWYQQKPGQPPRLLIYGASNLESGVPSRFKGSGSGTEFTLTISDLECDDAATYYCQTAFYIFSSDNAFGGGTEVVVK
notes: Recombinant rabbit IgG; also called antibody 3C5; clone 3C5

The star is where a group is joined. G0F = fucosylated biantennary N-glycan, CC(=O)N[C@@H]1[C@@H](O)[C@H](O[C@@H]2O[C@H](CO)[C@@H](O[C@@H]3O[C@H](CO[C@H]4O[C@H](CO)[C@@H](O)[C@H](O)[C@@H]4O[C@@H]4O[C@H](CO)[C@@H](O)[C@H](O)[C@H]4NC(C)=O)[C@@H](O)[C@H](O[C@H]4O[C@H](CO)[C@@H](O)[C@H](O)[C@@H]4O[C@@H]4O[C@H](CO)[C@@H](O)[C@H](O)[C@H]4NC(C)=O)[C@@H]3O)[C@H](O)[C@H]2NC(C)=O)[C@@H](CO[C@@H]2O[C@@H](C)[C@@H](O)[C@@H](O)[C@@H]2O)O[C@H]1* Bounds are passed on as bounds.

Assay [1] addresses B4. Briefly: SPR affinity in solution (Biacore, CAP chip): 10 nM antibody equilibrated with the non-biotinylated peptide at varied concentration; free antibody measured by its binding to captured AFP(243-261)-G0F-Bi; n=2 [continued), upper plot]. Here is the method: (§1) The dissociation equilibrium constant K) was determined via the Affinity in Solution method (AiS).
(§2) With increasing peptide concentration as a competitor, the ‘free’ antibody in solution decreases. The determined free antibody concentrations for the competition experiment were plotted versus the peptide competitor concentration. The regeneration was performed using a Guanidinium/NaOH solution, as supplied by Cytiva. Two independent series were analyzed for each interaction. The Affinity in Solution model from Biacore Evaluation software was used to evaluate the data.
(In SPR one partner is held on a chip, and binding of the other changes the refractive index at the surface.)

Assay [2] concerns the target B3. Briefly: SPR affinity in solution (Biacore, CAP chip): 10 nM antibody equilibrated with the non-biotinylated peptide at varied concentration; free antibody measured by its binding to captured AFP(243-261)-G0F-Bi; n=2. Here is the method: as §1, §2
Assay [3] addresses B4. Briefly: SPR affinity in solution (Biacore, CAP chip): 10 nM antibody equilibrated with the non-biotinylated, non-glycosylated peptide at varied concentration; free antibody measured by its binding to captured AFP(243-261)-G0F-Bi; n=2 [continued]. The protocol:
as §1, §2

Assay [4] addresses B3. Briefly: SPR affinity in solution (Biacore, CAP chip): 10 nM antibody equilibrated with the non-biotinylated, non-glycosylated peptide at varied concentration; free antibody measured by its binding to captured AFP(243-261)-G0F-Bi; n=2 [continued), lower plot]. Here is the method: as §1, §2
For assay [5], the target named is T1, AFP(243-261)[Acetyl-243; Asn(G0F)251; Bi-PEG] (human, N-terminal acetylation; G0F (fucosylated biantennary N-glycan) on Asn corresponding to Asn-251; C-terminal E(biotinyl-PEG)-NH2).
T1 construct: Synthetic glycopeptide
T1 peptide: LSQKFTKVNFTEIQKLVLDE
Kind of assay: SPR; ratio of KD against the KD for AFP(243-261)-G0F-Bi (reference itself). The protocol: as §1, §2

The target of assay [6] is T1, AFP(243-261)[Acetyl-243; Asn(G0F)251; …. Briefly: SPR Biacore T200, 37 C, antibody captured on C1 chip, peptide as analyte, Langmuir 1:1. The protocol:
(§3) Detailed kinetic investigations were performed using a BIAcore™ T200 instrument from GE Healthcare at 37° C. The 5 rabbit mAb<AFP-L3>L9B12, 3C5, 3D2, 3A3 and 6B6, identified via the kinetic screening, were kinetically characterized for binding AFP-L3 peptides [0656] […] Asn(G0F)-Bi [0658]
(§4) The rabbit antibody capture system was immobilized on flow cells 1-4 as described with 700 to 800 RU. Flow cell 1 served as reference, flow cells 2, 3 and 4 were used for interaction measurements. 150 nM antibodies 1-5 were injected at 10 μL/min for 30 seconds. The Capture Levels (CL) in resonance units RU were monitored. Peptide analyte concentration series from 3.3-270 nM were injected at 60 μl/min. The association phase was monitored for 3 minutes, the dissociation phase was monitored for 10 minutes. The regeneration was performed by an injection of 10 mM Glycine pH 2.0 at 20 μL/min for 30 seconds, followed by 2 injections of 10 mM Glycine pH 2.25 for 60 seconds. The kinetic rate constants and the dissociation equilibrium constants KD were determined using a Langmuir 1:1 fitting model according to the BIAcore™ T200 Evaluation SW 3.2. Secondly, the Langmuir 1:1 fitting Scrubber-SW V2.0c was applied.

For assay [7], the target named is T2, AFP(243-261)[Asn(Fuc-GlcNAc)Bi-PEG] (human, not fully specified; Fuc-GlcNAc disaccharide on Asn corresponding to Asn-251; C-terminal E(biotinyl-PEG)-NH2).
T2 peptide: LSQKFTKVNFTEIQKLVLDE
The assay is described as above. The protocol:
as §3, §4

Assay [8] addresses T3, AFP(243-261)[Ac-243; Asn(G2)251; Bi-PEG] (human, N-terminal acetylation; G2 (non-fucosylated biantennary N-glycan) on Asn corresponding to Asn-251; C-terminal E(biotinyl-PEG)-NH2).
T3 peptide: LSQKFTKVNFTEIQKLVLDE
Briefly: SPR; ratio of KD against the KD for AFP(243-261)-G0F-Bi; SPR; ratio of KD to the KD for G0F. Here is the method:
as §3, §4

Assay [9] concerns the target B2. Kind of assay: affinity in solution; ratio of KD against the KD for AFP(243-261)-G0F. The protocol: as §1, §2
Assay [10] deals with T1, AFP(243-261)[Acetyl-243; Asn(G0F)251; …. Briefly: SPR Biacore T200, 37 C; molar ratio (binding stoichiometry). Here is the method: as §3, §4
Assay [11] addresses T2, AFP(243-261)[Asn(Fuc-GlcNAc)Bi-PEG]. Described as above. Here is the method:
as §3, §4

Assay [12] shares this target. Kind of assay: SPR; ratio of KD against the KD for AFP(243-261)-G0F-Bi.
Assay [13] deals with T3, AFP(243-261)[Ac-243; Asn(G2)251; Bi-PEG]. Briefly: SPR Biacore T200, 37 C; simulation for 7.3 µM-10 nM extrapolated from measured data; SPR simulation for 7.3 µM-10 nM, extrapolated lower bound.
The target in assay [14] is B1. Briefly: SPR affinity in solution: 10 nM antibody with 120 nM-0.01 nM free peptide, free antibody read on AFP(243-261)-G0F-Bi CAP chip, n=2. The protocol: as §1, §2
Assay [15] deals with B2. Briefly: SPR affinity in solution: 10 nM antibody with 200 µM-0.1 nM free peptide, free antibody read on AFP(243-261)-G0F-Bi CAP chip, n=2. The protocol:
as §1, §2

Assay [16] concerns the target T1, AFP(243-261)[Acetyl-243; Asn(G0F)251; …. Kind of assay: SPR Biacore T200, 37 C, antibody captured on C1 chip, peptide as analyte, Langmuir 1:1; apparent value (complex binding behavior). Here is the method: as §3, §4
By visual inspection, the kinetic signature for antibody 3C5 is close to the antibody saturation for the highest shown concentration 90 nM.

For assay [17], the target named is T3, AFP(243-261)[Ac-243; Asn(G2)251; Bi-PEG]. Kind of assay: SPR Biacore T200, 37 C, weak binding (cell shifted to the kd column); SPR, weak binding; KD only, no rate constants.

Regarding B1, the figures for the “IC50 (read off the curve)” value in [1] and in assay [2] were around 5 nM and around 6 nM, respectively.

In the case of B2, the binding result in [3] and in assay [4] was “binds” each time.

Regarding B3, the “Delta KD” value in assay [5] was 1 fold; in assay [8] it was above 245 fold; in assay [9], above 5000 fold; in assay [12], above 7 fold. Further, the Kd in assay [6] was 2.5 nM; in assay [7] it was 18 nM; in [13], above 620 nM; in assay [14], 0.9 nM; in [15], 5700 nM. The off-rate constant (koff) in assay [6] was 0.0015 s⁻¹; in assay [7] it was 0.0047 s⁻¹. Further, the kon in [6] stood at 600000 M⁻¹ s⁻¹; in assay [7], 270000 M⁻¹ s⁻¹. Further, the t/2 diss in [6] is 8 min; in [7] it was 2.5 min. In addition, the MR in assay [10] turned out to be 1.4; in [11], 1.3.

B4: the “Delta KD” value is 1 fold in assay [5], above 180 fold in [8], above 5000 fold in assay [9] and above 11 fold in assay [12]. The Kd in [16] is 3.1 nM; in assay [7], 35 nM; in [14], 0.4 nM; in [17], 560 nM; in assay [15] it was 12600 nM. The koff in assay [16] turned out to be 0.0032 s⁻¹; in assay [7], 0.016 s⁻¹. In addition, the values for the kon in [16] and in assay [7] were 1e+06 M⁻¹ s⁻¹ and 450000 M⁻¹ s⁻¹, respectively. This molecule came in with a t/2 diss in [7] of 0.7 min. Besides, the results for the MR in assay [10] and in assay [11] were 1.6 and 1.5, respectively.

A word on the koff: it is the first-order rate constant of dissociation. One may read the kon as the rate constant with which the complex forms.
